Laboratory results from patent US7271245B2, “Methods and compositions for inhibition of metastasis” (The Scripps Research Institute, priority 2004, dated 2007).

Assays:
alpha IIb beta 3 = target: T1, alpha IIb beta 3 (Homo sapiens, UniProt P05106+P08514); assay: Flow cytometry, binding to other RGD-recognizing integrins
T1 construct: M21-LIIb cells (αIIbβ3, no αv integrin); expressed in transfected cells; host or cells: M21-LIIb human melanoma cells
Experimental: (§1) Flow cytometry. scFv binding to human tumor cells was analyzed by flow cytometry, initially with cloned scFv phage and then with purified scFv protein. Per sample, 2×10^5 tumor cells were blocked with goat serum and incubated either with scFv phage (2-5×10^10) (1 h at RT) followed by mouse anti-M13 mAb (Serotec) (30 min on ice) and goat FITC-anti mouse (Pierce) (30 min on ice), or with purified scFv (1.25 to 40 μg/ml, routinely 10 to 15 μg/ml) (45 min on ice), followed by mouse anti-FLAG mAb M2 (Sigma) (30 min on ice) and goat FITC-anti mouse. Binding/washing buffer was TBS with or without divalent cations (1 mM Ca^2+, 1 mM Mg^2+, 0.2 mM Mn^2+). Alternatively, tumor cells were washed in 10 ml of plasma (prepared freshly from human blood anticoagulated with 50 nM D-Phe-D-Pro-D-arginyl chloromethyl ketone, PPACK, Felding-Habermann et al., J. Biol. Chem. 271: 5892-5900, 1996), resuspended in plasma and then incubated sequentially, without washing, with purified scFv (45 min on ice), followed by anti-FLAG M2 (30 min on ice) and FITC-anti mouse (30 min on ice). All samples were counter stained with propidium iodide (PI) and analyzed on a Becton-Dickinson FACScan, with live gate set to exclude PI positive cells.
(§2) To generate therapeutic reagents that specifically react with activated αvβ3, a phage display library of single chain antibody fragments (scFv) was exploited. This library was derived from cancer patient blood lymphocyte cDNA libraries and allowed us to test the hypothesis that the expressed immune repertoire contains antibodies that recognize integrin αvβ3, and distinguish between its activated and non-activated forms. Mao et al., Proc. Natl. Acad. Sci. U.S.A 96: 6953-6958, 1999. A subtractive panning approach was designed based on variants of MDA-MB 435 human breast cancer cells. […] Apparently, these cells are selected during metastasis, as variant cells isolated from lung and bone metastases in immune deficient mice express constitutively activated αvβ3. To establish a cell population that uniformly expresses non-activated αvβ3, MDA-MB 435 parental cells were cloned by limiting dilution, and clones tested for αvβ3 functionality. […] A cell line, MDA-MB 435 Lung-Lung, was established which expressed αvβ3 in a constitutively activated form. This variant stems from a lung metastase of an immune deficient mouse whose mammary fat pad had been injected with parental MDA-MB 435 cells. […] After 5 rounds of subtracting the phage library on Parent Combo cells and panning on Lung-Lung cells, scFv clones were analyzed by flow cytometry for their ability to bind integrin αvβ3 on human tumor cells, and to distinguish between the activated and non-activated forms of the receptor (FIG. 1). […]

integrin αvβ5 = target: T2, integrin αvβ5 (Homo sapiens, UniProt P06756+P18084); assay: as above
T2 construct: UCLA-P3 lung adenocarcinoma cells (αv integrins, but no αvβ3); endogenous in cells; host or cells: UCLA-P3 human lung adenocarcinoma cells
T2 sequence (P06756 31-889 limits assumed): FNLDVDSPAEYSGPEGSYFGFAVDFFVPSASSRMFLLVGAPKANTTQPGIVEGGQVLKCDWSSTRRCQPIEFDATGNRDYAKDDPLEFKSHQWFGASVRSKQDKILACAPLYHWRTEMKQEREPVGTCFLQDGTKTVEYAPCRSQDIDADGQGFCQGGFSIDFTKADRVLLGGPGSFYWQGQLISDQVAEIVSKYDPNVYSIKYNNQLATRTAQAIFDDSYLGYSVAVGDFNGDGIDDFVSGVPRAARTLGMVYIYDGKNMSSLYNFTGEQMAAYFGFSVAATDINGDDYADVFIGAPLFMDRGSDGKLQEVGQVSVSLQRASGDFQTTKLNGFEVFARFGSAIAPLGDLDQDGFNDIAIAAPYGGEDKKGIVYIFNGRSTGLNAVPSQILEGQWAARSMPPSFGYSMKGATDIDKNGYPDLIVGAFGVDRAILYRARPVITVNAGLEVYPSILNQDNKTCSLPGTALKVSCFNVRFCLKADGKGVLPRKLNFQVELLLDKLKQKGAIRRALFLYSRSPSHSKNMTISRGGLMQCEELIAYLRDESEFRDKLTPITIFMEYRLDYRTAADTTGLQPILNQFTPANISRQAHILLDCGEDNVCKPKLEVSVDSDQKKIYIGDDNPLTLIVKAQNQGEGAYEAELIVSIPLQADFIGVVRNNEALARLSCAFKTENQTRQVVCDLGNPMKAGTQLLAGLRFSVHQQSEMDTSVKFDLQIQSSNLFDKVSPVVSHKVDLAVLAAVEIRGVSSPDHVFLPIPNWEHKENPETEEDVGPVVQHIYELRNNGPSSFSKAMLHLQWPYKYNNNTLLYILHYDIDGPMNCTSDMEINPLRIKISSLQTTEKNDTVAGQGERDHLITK
T2 sequence (P06756 891-1048 partner limits assumed): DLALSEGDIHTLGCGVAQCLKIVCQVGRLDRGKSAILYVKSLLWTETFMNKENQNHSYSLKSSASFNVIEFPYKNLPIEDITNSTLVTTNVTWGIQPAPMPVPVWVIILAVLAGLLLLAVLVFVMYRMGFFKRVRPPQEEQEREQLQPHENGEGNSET
T2 sequence (P18084 24-799): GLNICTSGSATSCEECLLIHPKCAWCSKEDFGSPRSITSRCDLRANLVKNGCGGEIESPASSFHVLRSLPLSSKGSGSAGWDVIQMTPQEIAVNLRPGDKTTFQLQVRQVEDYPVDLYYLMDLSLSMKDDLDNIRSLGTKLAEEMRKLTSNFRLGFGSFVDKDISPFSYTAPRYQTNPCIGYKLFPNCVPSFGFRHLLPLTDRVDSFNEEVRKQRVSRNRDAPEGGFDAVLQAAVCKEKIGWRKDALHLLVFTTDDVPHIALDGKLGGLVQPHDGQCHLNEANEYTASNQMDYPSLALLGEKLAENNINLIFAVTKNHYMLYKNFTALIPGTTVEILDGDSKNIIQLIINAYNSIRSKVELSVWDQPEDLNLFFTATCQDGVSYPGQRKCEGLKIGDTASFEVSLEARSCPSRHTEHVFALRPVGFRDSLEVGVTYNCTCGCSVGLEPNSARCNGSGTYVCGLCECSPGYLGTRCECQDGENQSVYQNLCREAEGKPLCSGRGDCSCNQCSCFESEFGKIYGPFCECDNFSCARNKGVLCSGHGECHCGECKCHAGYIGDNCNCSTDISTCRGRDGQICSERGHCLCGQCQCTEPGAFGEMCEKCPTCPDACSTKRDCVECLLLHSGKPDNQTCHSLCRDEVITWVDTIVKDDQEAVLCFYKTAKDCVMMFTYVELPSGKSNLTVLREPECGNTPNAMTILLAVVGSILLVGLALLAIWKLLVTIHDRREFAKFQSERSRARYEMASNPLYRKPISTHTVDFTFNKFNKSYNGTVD
Experimental: as §1, §2

α5β1 = target: T3, α5β1 (Homo sapiens, UniProt P05556+P08648); assay: as above
T3 construct: endogenous in cells
T3 sequence (P08648 42-894 limits assumed): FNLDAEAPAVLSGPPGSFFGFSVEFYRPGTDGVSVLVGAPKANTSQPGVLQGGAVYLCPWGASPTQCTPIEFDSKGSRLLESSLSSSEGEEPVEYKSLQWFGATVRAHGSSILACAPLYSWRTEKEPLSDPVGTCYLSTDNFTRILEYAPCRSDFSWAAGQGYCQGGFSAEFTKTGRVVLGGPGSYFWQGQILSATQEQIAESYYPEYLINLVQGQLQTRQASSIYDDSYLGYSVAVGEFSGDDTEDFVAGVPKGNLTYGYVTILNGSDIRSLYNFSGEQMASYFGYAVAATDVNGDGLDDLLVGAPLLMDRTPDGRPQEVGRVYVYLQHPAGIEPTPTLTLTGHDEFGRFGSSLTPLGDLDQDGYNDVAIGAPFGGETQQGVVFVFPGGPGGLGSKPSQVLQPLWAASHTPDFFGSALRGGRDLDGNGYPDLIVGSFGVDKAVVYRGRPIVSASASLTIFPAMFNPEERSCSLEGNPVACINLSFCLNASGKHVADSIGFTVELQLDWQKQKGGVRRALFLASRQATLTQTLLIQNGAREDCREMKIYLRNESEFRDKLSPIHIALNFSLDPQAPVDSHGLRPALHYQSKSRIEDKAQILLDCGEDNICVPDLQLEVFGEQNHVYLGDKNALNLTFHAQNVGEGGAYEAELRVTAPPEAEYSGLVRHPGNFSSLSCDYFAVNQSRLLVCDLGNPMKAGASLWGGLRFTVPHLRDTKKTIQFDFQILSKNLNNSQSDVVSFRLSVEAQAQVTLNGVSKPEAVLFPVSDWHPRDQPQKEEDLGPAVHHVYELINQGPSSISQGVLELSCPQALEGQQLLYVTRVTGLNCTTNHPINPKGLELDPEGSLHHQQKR
T3 sequence (P08648 895-1049 partner limits assumed): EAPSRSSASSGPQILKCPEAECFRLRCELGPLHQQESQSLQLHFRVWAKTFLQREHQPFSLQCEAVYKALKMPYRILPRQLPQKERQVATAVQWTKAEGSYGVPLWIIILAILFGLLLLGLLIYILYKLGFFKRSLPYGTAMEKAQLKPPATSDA
T3 sequence (P05556 21-798): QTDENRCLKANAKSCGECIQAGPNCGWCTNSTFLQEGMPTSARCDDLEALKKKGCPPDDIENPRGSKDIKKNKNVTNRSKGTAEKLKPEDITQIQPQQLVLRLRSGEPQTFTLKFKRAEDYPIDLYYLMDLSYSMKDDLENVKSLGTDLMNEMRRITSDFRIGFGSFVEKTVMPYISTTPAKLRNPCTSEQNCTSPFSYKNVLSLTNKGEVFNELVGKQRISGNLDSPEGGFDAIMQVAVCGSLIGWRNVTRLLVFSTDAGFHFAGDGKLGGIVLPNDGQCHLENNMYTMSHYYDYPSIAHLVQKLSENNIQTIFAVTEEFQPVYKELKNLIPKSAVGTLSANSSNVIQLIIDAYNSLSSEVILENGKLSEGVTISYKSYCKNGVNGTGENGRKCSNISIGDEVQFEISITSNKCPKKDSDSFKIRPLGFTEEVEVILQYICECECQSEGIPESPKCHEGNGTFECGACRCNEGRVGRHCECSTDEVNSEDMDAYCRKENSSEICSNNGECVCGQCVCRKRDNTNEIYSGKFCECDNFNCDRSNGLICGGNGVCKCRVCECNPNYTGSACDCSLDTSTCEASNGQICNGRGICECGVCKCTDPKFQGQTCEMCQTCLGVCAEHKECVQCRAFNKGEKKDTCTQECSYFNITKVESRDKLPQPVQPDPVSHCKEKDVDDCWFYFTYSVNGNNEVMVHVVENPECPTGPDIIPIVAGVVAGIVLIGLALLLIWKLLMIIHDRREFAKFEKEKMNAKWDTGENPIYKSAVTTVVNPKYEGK
Experimental: as §1, §2

αvβ1 = target: T4, αvβ1 (Homo sapiens, UniProt P05556+P06756); assay: as above
T4 construct: UCLA-P3 lung adenocarcinoma cells (αv integrins, but no αvβ3); endogenous in cells; host or cells: UCLA-P3 human lung adenocarcinoma cells
T4 sequence (P06756 31-889 limits assumed): as the sequence (P06756 31-889 limits assumed) above
T4 sequence (P06756 891-1048 partner limits assumed): as the sequence (P06756 891-1048 partner limits assumed) above
T4 sequence (P05556 21-798): as the sequence (P05556 21-798) above
Experimental: as §1, §2

[1] = test system: Integrin αIIβ3 mediated adhesive platelet functions; assay: Platelet adhesion and thrombus formation during blood perfusion; assay type: cell-based, human; conditions: 3 μM scFv
Experimental: Tumor cell arrest during bloodflow. Breast cancer cell arrest during blood flow and interaction with platelets was measured as described. Felding-Habermann, et al., Proc. Natl. Acad. Sci. U.S.A 98: 1853-1858, 2001. Felding-Habermann et al., J. Biol. Chem. 271: 5892-5900, 1996. Briefly, tumor cells were suspended in human blood anticoagulated with 50 nM PPACK and perfused over a collagen I matrix at a venous wall shear rate of 50 s^−1, 2 dynes/cm^2. Adhesive events and cell interactions were visualized and recorded by fluorescence video microscopy and quantified by image acquisition at 30 predefined positions followed by computerized image analysis (MetaMorph, Universal Imaging). Tumor cells were stained with hydroethidine (red fluorescence) (20 μg/ml, 30 min, 37° C.), washed, and mixed with blood containing 10 μM mepacrine (green fluorescence). Blood cells, tumor cells, and platelets acquired green fluorescence and were visualized at 488/515 nm (excitation/emission). Tumor cells were identified by their unique red fluorescence at 543/590 nm. To test inhibition, tumor cells were incubated with 3 μM scFv for 5 min at 37° C., then mixed into blood, scFv added to 3 μM final concentration and perfused immediately.
In the circulation, metastatic tumor cells are intensely exposed to a cancer patient's immune surveillance, encountering potential function blocking antibodies like Bc-12 and Bc-15. […]

B1: Bc-12: patient derived human scFv antibody against activated αvβ3 with RGD motif in CDR-H3; cDNA ATCC PTA-6303 (protein)
scFv: MAQVQLVQSGAEVKKPGASVKVSCKASGYTFSNYGITWVRQAPGQGLEWMGWINNGNTHYAQKFQGRVTMTTDTSTSTAYMELRSLRSDDTAVYYCARDPRGDDEPYWGQGTLVTVSSGGGGSGGGGSGGGGSEIVLTQSPLSLPVTLGQPASISCRSSQNLVYSDGNTYLSWFQQRPGQSPRRLIYKVSNRDSGVPDRFSGSGSGTDFTLKISRVEAEDIGVYYCMQGTHWPPRTFGQGTKVEIKRGLGGLVDYKDDDDK
binding to alpha IIb beta 3 (alpha IIb beta 3): do not bind
binding to integrin αvβ5 (integrin αvβ5): do not bind
binding to α5β1 (α5β1): do not bind
binding to αvβ1 (αvβ1): do not bind
adhesive platelet functions [1]: not affected
